The results in this text go back to US20240409617A1.

Some results are limits rather than exact numbers.

For this assay, the target named is S1. Kind of assay: BLI. (In BLI a coated tip is dipped into the sample, and binding shifts an interference pattern.)

A word on the Kd: it is the concentration at which binding is half-saturated. Consider CR3022 IgG, for which the Kd was < 1 pM.
